Measurements as given in US20040091995A1.

Target: human carcinoembryonic antigen (CEA) on MC-38-CEA-2 cells (human) (UniProt P06731)
Assay: FACS analysis of MC-38-CEA-2 tumor cells

Sequence of UniProt P06731 (P06731 35-702): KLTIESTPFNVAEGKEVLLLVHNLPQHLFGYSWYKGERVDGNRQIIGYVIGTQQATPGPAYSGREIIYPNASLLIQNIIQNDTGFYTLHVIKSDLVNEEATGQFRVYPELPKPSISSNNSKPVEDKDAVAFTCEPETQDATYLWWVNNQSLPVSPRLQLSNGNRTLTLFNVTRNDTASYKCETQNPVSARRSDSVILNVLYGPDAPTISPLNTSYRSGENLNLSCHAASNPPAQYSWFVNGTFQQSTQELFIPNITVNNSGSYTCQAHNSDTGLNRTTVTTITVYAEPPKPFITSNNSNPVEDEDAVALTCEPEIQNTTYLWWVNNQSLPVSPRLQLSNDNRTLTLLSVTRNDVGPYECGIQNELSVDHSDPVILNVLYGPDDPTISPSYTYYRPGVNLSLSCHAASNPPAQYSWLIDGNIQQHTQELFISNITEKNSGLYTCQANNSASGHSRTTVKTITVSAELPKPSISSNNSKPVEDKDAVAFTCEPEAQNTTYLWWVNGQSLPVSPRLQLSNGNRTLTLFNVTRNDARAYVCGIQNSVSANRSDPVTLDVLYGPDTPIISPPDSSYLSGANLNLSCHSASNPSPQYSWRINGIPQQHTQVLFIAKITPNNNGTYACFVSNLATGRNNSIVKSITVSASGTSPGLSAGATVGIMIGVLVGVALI

Work on “murine IgG2a anti-CEA MAb, COL-1 (antibody)” yielded a percent of cells positive (COL-1 binding) (% of the cells) of over 85.
